Results published in paper doi:10.1101/2025.04.02.646771.

Biological target: Leminorella grimontii GatC (Leminorella grimontii)
Assay: crystal structure

Leminorella grimontii GatC (natural protein)
stoichiometry N: 2
